Assay results from patent US20050175581.

Key:
substrate B = molecular target: T1, substrate B
T1 chain: KKWLGRVPGGPV

substrate A = molecular target: T2, substrate A
T2 chain: LLWLGRVVGGPV

| Protein | rate constants of the proteolytic digestion (proportional to kcat/KM), relative to human trypsin I (substrate B) | rate constants of the proteolytic digestion (proportional to kcat/KM), relative to human trypsin I (substrate A) |
| --- | --- | --- |
| Variant 2 (protein) IVGGYNCEENSVPYQVSLNSGYHFCGGSLINEQWVVSAGHCYNGRDLEKSRIQVRLGEHNIEVLEGNEQFINAAKIIRHPQYDRKTLNNDIMLIKLSSRAVINARVSTISLPTAPPATGTKCLISGWGNVRGTWTASSGADYPDELQCLDAPVLSQAKCEASYPGKITSNMFCVGFLEGGKDSCQGDSGGPVVCNGQLQGVVSWGDGCAQKNKPGVYTKVYNYVKWIKNTIAANS | the specific activity of variants 1 and 2 is shifted (SEQ ID NOs: 2 and 3, respectively) towards substrate B |  |
| Variant 1 (protein) IVGGYNCEENSVPYQVSLNSGYHFCGGSLINEQWVVSAGHCYDAVGRDKSRIQVRLGEHNIEVLEGNEQFINAAKIIRHPQYDRKTLNNDIMLIKLSSRAVINARVSTISLPTAPPATGTKCLISGWGNTITNSTASSGADYPDELQCLDAPVLSQAKCEASYPGKITSNMFCVGFLEGGKDSCQGDSGGPVVCNGQLQGVVSWGDGCAQKNKPGVYTKVYNYVKWIKNTIAANS | the specific activity of variants 1 and 2 is shifted (SEQ ID NOs: 2 and 3, respectively) towards substrate B |  |
| Variant 3 (protein) IVGGYNCEENSVPYQVSLNSGYHFCGGSLINEQWVVSAGHCYAATNGDKSRIQVRLGEHNIEVLEGNEQFINAAKIIRHPQYDRKTLNNDIMLIKLSSRAVINARVSTISLPTAPPATGTKCLISGWGNRKDFWTASSGADYPDELQCLDAPVLSQAKCEASYPGKITSNMFCVGFLEGGKDSCQGDSGGPVVCNGQLQGVVSWGDGCAQKNKPGVYTKVYNYVKWIKNTIAANS | serves as a negative control with similar activities as the human trypsin I | serves as a negative control with similar activities as the human trypsin I |
